We go through two molecules from patent US20240417476A1 (ATYR PHARMA, published 2024).

Read-outs that look alike come from different tables or passages of the source. Ends that are not written are not given here.

In test [1] the target is T1, NRP2a_scan 1 peptide (biotinylated) (human, also: biotin-conjugated, site not given here).
T1 peptide: VDIPEIHEREGY
As to the kind of experiment: BLI, peptide on sensor. In general terms: In BLI a coated tip is dipped into the sample, and binding shifts an interference pattern.

Test [2] addresses T2, NRP2a_scan 2 peptide (biotinylated) (human, also: biotin-conjugated, site not given here).
T2 peptide: PEIHEREGYEDE
As to the kind of experiment: BLI, peptide on sensor.

The target in test [3] is mNRP2b peptide (biotinylated) (mouse, biotin-conjugated, site not stated). As to the kind of experiment: BLI, peptide on sensor.
mNRP2b peptide (biotinylated) (mouse, biotin-conjugated, site not stated), sequence (peptide, as listed by the source): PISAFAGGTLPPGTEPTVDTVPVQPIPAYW
Test [4] deals with T3, NRP2a_scan 4 peptide (biotinylated) (human, also: biotin-conjugated, site not given here).
T3 peptide: EGYEDEIDDEYE
As to the kind of experiment: BLI, peptide on sensor.

The target in test [5] is T4, NRP2a_scan 7 peptide (biotinylated) (human, also: biotin-conjugated, site not given here).
T4 peptide: EYEVDWSNSSSA
As to the kind of experiment: BLI, peptide on sensor.

Test [6] has as its target T5, NRP2a_scan 3 peptide (biotinylated) (human, also: biotin-conjugated, site not given here).
T5 peptide: HEREGYEDEIDD
Put plainly: BLI, peptide on sensor.

The target in test [7] is T6, Short NRP2A peptide (biotinylated) (human, biotin-conjugated, site not stated). As to the kind of experiment: BLI, peptide on sensor.
The target of test [8] is T7, NRP2b peptide (biotinylated) (human, biotin-conjugated, site not stated).
T7 construct: also called NRP2b isoform specific peptide
T7 peptide: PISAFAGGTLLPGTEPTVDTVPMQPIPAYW
Put plainly: BLI, peptide on sensor.

Test [9] addresses T8, NRP2A peptide (biotinylated) (human, biotin-conjugated, site not stated).
T8 construct: also called NPR2A; NRP2a specific peptide
As to the kind of experiment: BLI, isoform peptide on sensor, 50 nM antibody.

Test [10] deals with T9, Mid-NRP2A peptide (biotinylated) (human, biotin-conjugated, site not stated).
T9 peptide: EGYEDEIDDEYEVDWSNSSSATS
Put plainly: BLI, peptide on sensor, 50 nM antibody.

Test [11] has as its target T10, mNRP2A peptide (biotinylated) (mouse, biotin-conjugated, site not stated).
T10 construct: also called mouse NRP2 isoform a peptide
As to the kind of experiment: BLI, peptide on sensor, 50 nM antibody.

The target of test [12] is T11, NRP2a_scan 5 peptide (biotinylated) (human, also: biotin-conjugated, site not given here).
T11 peptide: EDEIDDEYEVDW
As to the kind of experiment: BLI, peptide on sensor, 50 nM antibody.

Test [13] addresses T12, Mid-mNRP2A peptide (biotinylated) (mouse, biotin-conjugated, site not stated).
T12 peptide: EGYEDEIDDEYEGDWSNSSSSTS
Put plainly: BLI, peptide on sensor, 50 nM antibody.

Test [14] concerns the target T13, NRP2a_scan 6 peptide (biotinylated) (human, also: biotin-conjugated, site not given here).
T13 peptide: IDDEYEVDWSNS
Put plainly: BLI, peptide on sensor, 50 nM antibody.

Test [15] deals with T9, Mid-NRP2A peptide (biotinylated). As to the kind of experiment: BLI, peptide on sensor.
Test [16] addresses T11, NRP2a_scan 5 peptide (biotinylated). Put plainly: BLI, peptide on sensor.
Test [17] concerns the target T12, Mid-mNRP2A peptide (biotinylated). As to the kind of experiment: BLI, peptide on sensor.
The target in test [18] is T13, NRP2a_scan 6 peptide (biotinylated). Put plainly: BLI, peptide on sensor.
The next test deals with T14, NRP2v3.
T14 construct: not the NanoLuc-tagged construct m33; also called human NRP2 v3 expressed on Expi293F cells; NRP2a v3
T14 chain: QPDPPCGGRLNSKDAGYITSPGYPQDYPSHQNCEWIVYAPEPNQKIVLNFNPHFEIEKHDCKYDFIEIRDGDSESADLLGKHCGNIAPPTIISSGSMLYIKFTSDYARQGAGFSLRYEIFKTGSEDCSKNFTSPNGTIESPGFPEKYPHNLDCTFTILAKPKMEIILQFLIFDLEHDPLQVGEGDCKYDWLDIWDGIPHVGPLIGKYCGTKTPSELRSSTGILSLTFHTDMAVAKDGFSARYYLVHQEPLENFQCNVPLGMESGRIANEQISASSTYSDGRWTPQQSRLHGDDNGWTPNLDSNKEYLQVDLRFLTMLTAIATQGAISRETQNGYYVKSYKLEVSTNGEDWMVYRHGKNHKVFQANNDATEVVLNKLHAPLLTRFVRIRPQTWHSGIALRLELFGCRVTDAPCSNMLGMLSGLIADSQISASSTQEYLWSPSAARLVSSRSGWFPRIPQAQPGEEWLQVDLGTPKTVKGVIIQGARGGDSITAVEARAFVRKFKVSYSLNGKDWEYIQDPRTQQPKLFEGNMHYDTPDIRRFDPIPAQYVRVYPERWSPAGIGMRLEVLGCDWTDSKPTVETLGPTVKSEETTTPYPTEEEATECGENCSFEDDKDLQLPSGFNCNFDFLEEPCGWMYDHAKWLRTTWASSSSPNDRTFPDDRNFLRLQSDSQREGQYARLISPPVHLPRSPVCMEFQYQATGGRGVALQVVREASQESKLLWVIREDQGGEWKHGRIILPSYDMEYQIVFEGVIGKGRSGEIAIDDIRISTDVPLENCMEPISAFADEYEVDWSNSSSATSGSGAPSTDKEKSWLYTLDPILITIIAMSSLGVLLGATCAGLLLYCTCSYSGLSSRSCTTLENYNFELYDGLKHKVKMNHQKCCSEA
As to the kind of experiment: flow cytometry, Expi293F cells transfected with the target, fluorescent anti-mouse secondary; MFI signal relative to mock-transfected cells. In general terms: Flow cytometry measures light scatter and fluorescence of single cells or particles in a stream.

Test [19] addresses T15, human NRP2b expressed on Expi293F cells (human).
T15 construct: also called full length NRP2b
T15 chain: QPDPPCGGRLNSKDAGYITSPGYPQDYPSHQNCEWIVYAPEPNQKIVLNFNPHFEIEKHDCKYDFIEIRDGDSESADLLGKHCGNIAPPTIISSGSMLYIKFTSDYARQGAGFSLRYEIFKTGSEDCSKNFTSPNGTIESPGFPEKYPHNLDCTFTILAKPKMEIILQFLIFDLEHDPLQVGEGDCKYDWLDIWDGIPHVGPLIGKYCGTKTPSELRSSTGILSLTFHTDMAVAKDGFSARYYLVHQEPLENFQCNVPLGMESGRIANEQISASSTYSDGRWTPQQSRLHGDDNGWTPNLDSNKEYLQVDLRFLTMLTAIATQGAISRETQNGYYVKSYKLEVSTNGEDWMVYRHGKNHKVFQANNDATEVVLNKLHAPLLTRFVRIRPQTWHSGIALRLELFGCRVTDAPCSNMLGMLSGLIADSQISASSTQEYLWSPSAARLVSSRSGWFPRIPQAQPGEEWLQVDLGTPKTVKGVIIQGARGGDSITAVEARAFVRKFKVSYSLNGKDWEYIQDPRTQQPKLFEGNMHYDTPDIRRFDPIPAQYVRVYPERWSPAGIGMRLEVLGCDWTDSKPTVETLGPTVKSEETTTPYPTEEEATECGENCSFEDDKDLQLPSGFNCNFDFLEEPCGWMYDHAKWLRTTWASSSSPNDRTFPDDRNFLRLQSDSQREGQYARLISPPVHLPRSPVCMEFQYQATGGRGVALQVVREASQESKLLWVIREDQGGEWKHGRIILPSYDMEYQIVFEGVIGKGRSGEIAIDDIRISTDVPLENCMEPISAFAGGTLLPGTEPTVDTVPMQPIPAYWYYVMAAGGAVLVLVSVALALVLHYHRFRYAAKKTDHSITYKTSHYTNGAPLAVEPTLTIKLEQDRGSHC
The test is described as above.
Protocol: (§1) Signal to noise was calculated as the staining intensity of transfected cells compared to an un-transfected ‘mock’ population.

The target in test [20] is T1, NRP2a_scan 1 peptide (biotinylated). Put plainly: peptide ELISA.
Test [21] deals with T6, Short NRP2A peptide (biotinylated). As to the kind of experiment: BLI, peptide on sensor, 50 nM antibody.
Test [22] deals with T10, mNRP2A peptide (biotinylated). Put plainly: BLI, peptide on sensor.
Test [23] has as its target T7, NRP2b peptide (biotinylated). Put plainly: BLI, peptide on sensor.
For test [24], the target named is T16, Human NRP2a v2 (926aa) in pBiT2.1-C with C-terminal split NanoLuc tag, expressed in Expi293 cells (human, UniProt O60462 23-931).
T16 construct: cDNA Origene RCC220706, isoform 2; also called pBiT2.1-C-NRP2v2 (isoform 2); NRP2 v2; not shown: vector-encoded spacer and small split NanoLuc fragment (pBiT2.1-C)
Put plainly: CCL21-induced NRP2a/CCR7 receptor dimerization (NanoBiT, Example 7); mark beside the epitope box.

Protocol for NRP2v3: as §1

B1: aNRP2-401v2 (antibody, V domains shown)
VH: EVQLQESGGGLVKPGGSLKLSCAASGFTFSDYGMHWVRQAPEKGLEWVATISRDINTVYYADTVKGRFTISRDNAKNTLFLQVTSLRSEDTAMYYCTRGGYTDYWGQGTTLTVSS
VL: DIVMTQTPLSLPVSLGDQASISCRSSQSLVHSNGNTYLYWYLQRPGQSPKLLIYKVSNRFSGVPDRFSGSGSGTDFTLKISRVEAEDLGVYFCSQSTHVLTFGGGTKLEIK
notes: Mouse monoclonal
For B1, the binding result in test [1], in [2], in test [3], in test [4], in [5] and in [6] was “no binding (tested: 50 nM)” in each case. Also, the binding result in [7] is recorded as “no binding (tested: 50 nM)”; in [8], “no binding (tested: 50 nM)”; in [9], “binds”; in test [10], “binds”; in test [11] it was “binds”; in [12], “binds”. Besides, the binding result in [13] and in [14] was “binds” throughout.

B2: aNRP2-400v2 (antibody, V domains shown)
VH: EVQLQESGAELARPGASVKLSCKASGYTFRSYGISWVKQRTGQGLEWIGEIYPRSGNTYYDENFKGRATLTADKSSSTAFMELRSLTSEDSAVYFCARSSITAVVAIPYYYAMDYWGQGTSVTVSS
VL: DIQMTQTTSSLSASLGDRVTISCSASQGISNYLNWYQQKPDGSVKLLIYYTSSLHSGVPSRFSGSGSGTDYSLTISNLEPEDIATYYCQQYSKLPHTFGGGTKLELK
notes: Mouse monoclonal
As for B2, the binding result in [2], in test [3], in test [15], in [4], in test [5] and in test [6] was “no binding (tested: 50 nM)” in each case. Moreover, the binding result in test [16] is “no binding (tested: 50 nM)”; in [17], “no binding (tested: 50 nM)”; in test [18], “no binding (tested: 50 nM)”; with NRP2v3, “no binding”; in test [9], “binds”; in test [19] it was “no binding”. Moreover, the binding result in test [20] was “binds”; in test [21], “binds”; in test [22], “no binding (tested: 50 nM)”; in test [23], “no binding (tested: 50 nM)”. In test [24], the blocks receptor dimerization was > 50%.
